Measured values: patent US8129349B2, “Treatment of disease by inducing cell apoptosis” (The Regents of the University of California, priority 2000, dated 2012)
No end group written: not given here.

T1: procaspase 1 (Homo sapiens, UniProt P29466)
T1 construct: purchased Alexis Biochemicals 201-056
T1 sequence (P29466 1-404): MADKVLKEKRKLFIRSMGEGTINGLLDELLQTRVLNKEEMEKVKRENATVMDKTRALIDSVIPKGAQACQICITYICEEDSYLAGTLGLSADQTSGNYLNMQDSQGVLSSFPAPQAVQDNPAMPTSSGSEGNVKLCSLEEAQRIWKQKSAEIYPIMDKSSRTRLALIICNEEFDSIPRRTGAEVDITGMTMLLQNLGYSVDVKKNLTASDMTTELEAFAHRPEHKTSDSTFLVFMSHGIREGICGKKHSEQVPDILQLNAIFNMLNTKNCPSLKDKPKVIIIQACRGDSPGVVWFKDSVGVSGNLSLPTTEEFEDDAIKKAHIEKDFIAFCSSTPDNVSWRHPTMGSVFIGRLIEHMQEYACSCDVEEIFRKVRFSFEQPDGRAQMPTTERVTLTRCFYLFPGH

B1: C/EBPβ-HA-Glu^217: purified recombinant HA (hemagglutinin) tagged C/EBPβ-Glu^217 peptide (protein)
chain: MHRLLAWDAACLPPPPAAFRPMEVANFYYEPDCLAYGAKAARAAPRAPAAEPAIGEHERAIDFSPYLEPLAPAADFAAPAPAHHDFLSDLFADDYGAKPSKKPADYGYVSLGRAGAKAAPPACFPPPPPAALKAEPGFEPADCKRADDAPAMAAGFPFALRAYLGYQATPSGSSGSLSTSSSSSPPGTPSPADAKAAPAACFAGPPAAPAKAKAKKEVDKLSDEYKMRRERNNIAVRKSRDKAKMRNLETQHKVLELTAENERLQKKVEQLSRELSTLRNLFKQLPEPLLASAGHC
modifications: left off: small tags and cut ends
notes: purified recombinant HA (hemagglutinin) tagged C/EBPβ-Glu^217 peptide

Columns and labels:
procaspase 1 = target: T1, procaspase 1; experiment: Co-immunoprecipitation of purified recombinant procaspase 1 with recombinant C/EBPβ peptides; format: binding; conditions: peptides 200 μM, procaspase 1 0.6 U, quantitated by densitometry
Protocol: (§1) FIG. 5 provides results showing the direct association of C/EBPβ-Glu^217 with procaspases 1 and 8. […] Enzyme activity was measured in the absence (control) or presence of C/EBPβ peptides (200 μM) for 2 h, using a procaspases 1 (1U) (not shown) and 8 (0.2 μg) activity assay. Values are presented as the mean±one half the range of duplicates. Panel C provides results for cells cultured on a collagen type I matrix and incubated with the indicated cell permeant, purified synthetic N-acetyl, C-aldehyde C/EBPβ tetra-peptides (10 μM) or with recombinant C/EBPβ-HA peptides as indicated, together with the Chariot reagent (Active Motif) for 4 h. Control cells were incubated without peptides (P<0.05 for all peptides containing Ala^217).
(§2) Purified recombinant C/EBPβ peptides, expressed as known in the art (See, Descombes et al., supra; and Buck et al. (1994), supra), and purified synthetic N-acetyl, C-aldehyde tetrapeptides (200 μM) (American Peptide Company) were assayed for their ability to inhibit the activity of purified human recombinant caspases 1 (catalogue # 201-056) and 8 (catalogue # 201-041-C005) (Alexis Biochemicals). The sequence of caspase 8 includes Ser217 through Asp479 cloned into an expression vector containing a 21 amino acid linker at the N-terminus. Thus, the prodomain (first 220 amino acids) is essentially missing. The fragment is cleaved at Asp385 and the active caspases are essentially identical to those identified in apoptotic cells (Stennicke and Salvesen, Meth. Enzymol., 322:91-100 (1997)). Caspase activity was determined by the release of the p-nitroaniline colorimetric (Alexis Biochemicals) substrate for caspase 1 (catalogue # 260-026) or 8 (catalogue # 260-045) within the linear part of the kinetic assay (Thornberry et al. (1997), supra; Stennicke and Salvesen, supra). Caspase 1 and 8 activity in cells was performed with colorimetric kits (catalogues # 850-211-K and 850-221-K) as described by the manufacturer (Alexis) (See also, Thornberry et al. (1997), supra). The caspase 8 inhibitor IETD was from Calbiochem (Catalogue # 218773).
To delineate the role of C/EBPβ on the activation of procaspases 1 and 8, the self-activation of recombinant procaspases 1 and 8 was induced in vitro (Wilson et al., supra; Margolin et al., supra; and Earnshaw et al., supra), and the effect of purified recombinant C/EBPβ peptides, produced as described previously (Descombes et al., supra; and Buck et al., (1994), supra) on this process was determined. Consistent with the in vivo results described above, C/EBPβ-HA-Glu^217 and C/EBPβ 216-253-HA-Glu^217, but not C/EBPβ-HA-Ala^217, peptides associated with procaspases 1 and 8 (See, FIG. 5, Panel A). […]

hepatic stellate cells = experiment: Apoptosis of activated stellate cells transfected with C/EBPβ constructs, annexin-V-PE binding; format: cell-based, mouse; conditions: apoptosis induced by dominant negative MEKK1, IκBα or RSK mutants or by lactacystin
Excerpt: FIG. 1 provides data showing that phosphorylation of C/EBPβ on Thr^217 is required for hepatic stellate cell survival. Panel A provides phosphopeptide maps of in vivo labeled endogenous C/EBPβ in day-4 quiescent and activated primary mouse stellate cells cultured from the time of isolation on EHS or collagen type I matrix, respectively. The arrow indicates the peptide containing Phospho-Thr^217 in activated cells. […] Panel B provides phosphopeptide maps of in vitro labeled C/EPBβ. Active p90RSK phosphorylated C/EPBβ, but not C/EBPβ-Ala^217 on Thr^217 in vitro (arrowheads). Panel C provides results for cells cultured on collagen type I transfected with MSV-C/EBPβ antisense (AS), MSV-C/EBPβ sense (S), or MSV-C/EBPβ-Ala^217 together with CMV-GFP (green fluorescent protein) and p90RSK (1 μg each), as indicated in the Figure. Four hours after transfection, annexin-V-PE binding to plasma membranes was determined. The values presented are the percentage of transfected cells (green) that were annexin-V-PE (+) (red) (P<0.05 for C/EBPβ AS, and C/EBPβ-Ala^217). Panel D provides results for cells transfected as in […] with vectors expressing dominant negative mutants for MEKK1, IκBα, or p90RSK, or treated with the proteasome inhibitor lactacystin (10 μM) (closed bars), and co-transfected with MSV-C/EBPβ-Glu^217 (1 μg each) (open bars) as indicated. Annexin-V-PE binding was determined as described for Panel A (P<0.05 for C/EBPβ-Glu^217). Panel E provides results for cells transfected as described for Panel C, with a dominant-negative p90RSK, treated with FAS (100 nM for 6 hours) or cultured in a serum-free medium for 6 hours (closed bars), and co-transfected with MSV-C/EBPβ-Glu^217 (1 μg each) (open bars), as indicated. Cell death was determined by nuclear staining with Hoechst 33342 (P<0.05 for C/EBPβ-Glu^217 in RSK mut and FAS-treated cells).
FIG. 4 provides results showing that C/EBPβ PThr^217 associates with procaspases 1 and 8, and inhibits their activation. Panel A provides schematic representations of C/EBPβ peptides. The activation (dotted bars), DNA binding (solid bars) and dimerization (hatched bars) domains are shown. […] Panel C provides results showing that C/EBPβ and procaspase 8 were detected in activated stellate cells isolated from C/EBPβ^+/+ mice by confocal microscopy using specific antibodies (Santa Cruz Biotechnology). Control C/EBPβ^−/− stellate cells were negative for C/EBPβ, positive for procaspase 8, and apoptotic. Panel D provides immunoblot results for MSV vectors expressing C/EBPβ-HA (hemagglutinin protein) peptides (0.3 μg) transfected into activated stellate cells. The expressed peptides were immunoprecipitated with anti-HA antibodies. C/EBPβ-PThr^217 was detected using a specific antibody, only in cells expressing wild-type C/EBPβ. […] RSK was associated with all C/EBPβ peptides. Neither C/EBPβ nor procaspases 1 and 8 were detected in C/EBPβ immunoprecipitates from cells expressing C/EBPβ AS. Reciprocal immunoprecipitations of procaspases and RSK confirmed these associations.
Adult male Sprague-Dawley rats and adult male C/EBPβ^+/+ and C/EBPβ^−/− (Screpanti et al., supra; and Buck et al., (1999), supra), C/EBPβ-Ala^217 and C/EBPβ-Asp^105 transgenic mice were used for the isolation of primary hepatic stellate cells (Houglum et al., supra). Primary hepatic stellate cells were isolated by collagenase/pronase perfusion and purified by a single step density Nycodenz gradient (Accurate Chemical & Scientific) as known in the art (See, Lee et al., (1995), supra). Cells were plated on type I collagen matrix (Becton Dickinson) or EHS matrix (Matrigel, Collaborative Biomedical Products). Cells were cultured with 10% fetal calf serum/10% fetal bovine serum and transfected with lipofectamine (GIBCO) for DNA vectors or with the Chariot reagent (Active Motif) for peptides (10 μM) as known in the art (See, Houglum et al., supra; and Morris et al., J. Biol. Chem., 274:24942-24946 (1999)). […]

procaspase 8 = procaspase 8 (Homo sapiens, UniProt Q14790); experiment: Co-immunoprecipitation of purified recombinant procaspase 8 with recombinant C/EBPβ peptides; format: binding; parameters: 21 amino acid linker (vector-derived) (N); purchased Alexis Biochemicals 201-041-C005; conditions: peptides 200 μM, procaspase 8 0.12 μg, quantitated by densitometry
Sequence of procaspase 8 (Q14790 217-479): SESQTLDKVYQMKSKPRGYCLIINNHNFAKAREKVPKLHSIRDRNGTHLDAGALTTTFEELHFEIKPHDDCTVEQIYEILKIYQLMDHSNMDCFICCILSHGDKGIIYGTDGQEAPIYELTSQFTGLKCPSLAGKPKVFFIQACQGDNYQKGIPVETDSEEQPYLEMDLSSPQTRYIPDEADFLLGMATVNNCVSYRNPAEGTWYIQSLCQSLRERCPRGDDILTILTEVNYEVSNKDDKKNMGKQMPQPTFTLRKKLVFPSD
Protocol: as §1
as §2, with “The fragment is cleaved at Asp385 and the active caspases are essentially identical to those identified in apoptotic cells (Stennicke and Salvesen, Meth. Enzymol., 322:91-100 (1997)).” left out, “Caspase 1 and 8 activity in cells was performed with colorimetric kits (catalogues # 850-211-K and 850-221-K) as described by the manufacturer (Alexis) (See also, Thornberry et al. (1997), supra). The caspase 8 inhibitor IETD was from Calbiochem (Catalogue # 218773).” left out
To delineate the role of C/EBPβ on the activation of procaspases 1 and 8, the self-activation of recombinant procaspases 1 and 8 was induced in vitro (Wilson et al., supra; Margolin et al., supra; and Earnshaw et al., supra), and the effect of purified recombinant C/EBPβ peptides, produced as described previously (Descombes et al., supra; and Buck et al., (1994), supra) on this process was determined. […]

| Molecule | Co-immunoprecipitation of procaspase 1, fold more than the Ala^217 peptides (procaspase 1) | Rescue from induced apoptosis by expressed construct (hepatic stellate cells) | Co-immunoprecipitation of procaspase 8, fold more than the Ala^217 peptides (procaspase 8) [fold] |
| --- | --- | --- | --- |
| C/EBPβ 216-253-Glu^217: C/EBPβ fragment 216-253 with Glu^217, lacking the activation and dimerization domains (KEVDKLSDEYKMRRERNNIAVRKSRDKAKMRNLETQHK; left off: small tags and cut ends) | 7 fold | sufficient to rescue cells from apoptosis | 12 |
| C/EBPβ216-253-HA-Glu^217: purified recombinant HA tagged C/EBPβ 216-253 peptide with Glu^217 (KEVDKLSDEYKMRRERNNIAVRKSRDKAKMRNLETQHK; also: HA tag (place not given here)) | about 7 fold |  | ~12 |
| B1 | about 7 fold |  |  |
